Measured values from paper doi:10.1101/2022.05.10.491262.

Target: T1, human alpha-2-macroglobulin, native state (nA2M) (human), P01023
T1 chain: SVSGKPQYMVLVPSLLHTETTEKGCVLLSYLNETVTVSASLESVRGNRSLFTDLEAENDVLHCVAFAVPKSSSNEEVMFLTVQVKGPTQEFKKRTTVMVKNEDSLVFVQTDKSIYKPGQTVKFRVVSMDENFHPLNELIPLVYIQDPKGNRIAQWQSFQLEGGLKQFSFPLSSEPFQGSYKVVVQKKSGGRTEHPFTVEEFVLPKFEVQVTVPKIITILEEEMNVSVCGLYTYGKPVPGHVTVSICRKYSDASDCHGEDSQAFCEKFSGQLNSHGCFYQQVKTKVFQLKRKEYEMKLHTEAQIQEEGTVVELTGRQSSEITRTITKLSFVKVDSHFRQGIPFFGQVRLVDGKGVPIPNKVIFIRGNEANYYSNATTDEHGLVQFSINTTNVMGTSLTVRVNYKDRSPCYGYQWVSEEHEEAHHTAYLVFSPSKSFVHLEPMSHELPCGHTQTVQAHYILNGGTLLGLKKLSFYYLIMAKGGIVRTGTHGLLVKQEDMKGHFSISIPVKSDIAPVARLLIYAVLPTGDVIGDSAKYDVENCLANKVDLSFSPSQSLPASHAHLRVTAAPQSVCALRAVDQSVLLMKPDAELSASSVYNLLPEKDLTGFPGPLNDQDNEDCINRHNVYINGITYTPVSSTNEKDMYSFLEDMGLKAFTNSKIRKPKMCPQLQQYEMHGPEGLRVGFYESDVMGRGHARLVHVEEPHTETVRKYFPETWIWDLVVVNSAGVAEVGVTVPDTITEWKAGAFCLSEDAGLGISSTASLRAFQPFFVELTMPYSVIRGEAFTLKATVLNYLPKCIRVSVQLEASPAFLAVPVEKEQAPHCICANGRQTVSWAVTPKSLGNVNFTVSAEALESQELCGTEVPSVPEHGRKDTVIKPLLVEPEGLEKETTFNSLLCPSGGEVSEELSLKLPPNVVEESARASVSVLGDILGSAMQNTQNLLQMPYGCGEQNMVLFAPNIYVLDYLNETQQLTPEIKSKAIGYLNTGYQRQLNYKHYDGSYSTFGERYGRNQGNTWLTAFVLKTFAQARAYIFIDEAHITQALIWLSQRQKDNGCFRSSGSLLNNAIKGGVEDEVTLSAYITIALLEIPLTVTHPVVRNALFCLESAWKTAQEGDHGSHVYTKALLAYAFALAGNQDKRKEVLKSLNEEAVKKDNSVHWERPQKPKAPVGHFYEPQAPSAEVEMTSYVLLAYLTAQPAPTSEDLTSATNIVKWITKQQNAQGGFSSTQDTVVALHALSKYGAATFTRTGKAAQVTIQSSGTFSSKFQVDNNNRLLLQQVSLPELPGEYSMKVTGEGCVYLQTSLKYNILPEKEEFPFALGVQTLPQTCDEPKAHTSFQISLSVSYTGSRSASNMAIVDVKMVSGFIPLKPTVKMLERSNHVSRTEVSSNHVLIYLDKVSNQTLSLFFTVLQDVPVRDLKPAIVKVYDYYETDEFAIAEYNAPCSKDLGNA
Assay: ITC

B1: human trypsin, P35030 81-304 (enzyme)
chain: IVGGYTCEENSLPYQVSLNSGSHFCGGSLISEQWVVSAAHCYKTRIQVRLGEHNIKVLEGNEQFINAAKIIRHPKYNRDTLDNDIMLIKLSSPAVINARVSTISLPTTPPAAGTECLISGWGNTLSFGADYPDELKCLDAPVLTQAECKASYPGKITNSMFCVGFLEGGKDSCQRDSGGPVVCNGQLQGVVSWGHGCAWKNRPGVYTKVYNYVDWIKDTIAANS
modifications: not checked
- stoichiometry N (trypsin per hA2M): 1.2
